Reference: US7597905

Key:
[1] = molecular target: HBsAg particles (hepatitis B virus surface antigen L protein particles expressed in recombinant yeast carrying pGLDLIIP39-RcT) (hepatitis B virus); test: Auszyme II EIA kit, S-antigenicity of purified particles
[2] = molecular target: HBsAg (G145R) particles (hepatitis B virus); test: as above

Auszyme II EIA kit (Dainabot Co. Ltd.) (antibody)
S-antigenicity [1]: 1
S-antigenicity [2]: 0.2
